One protein from publication PMC3407147, “Therapeutic Inhibition of Pro-Inflammatory Signaling and Toxicity to Staphylococcal Enterotoxin B by a Synthetic Dimeric BB-Loop Mimetic of MyD88” (PLoS ONE, 2012) can be followed below.

This data set deals with the molecule itself. The data set is described as follows: peptide or protein array; MyD88 TIR domain monomer spotted in quadruplicate on nitrocellulose-coated slides; biotinylated MyD88 (25 µg/ml) in 50 mM Hepes, 0.1% Tween, 3% human antibody serum, 2 h at room temperature; detected with streptavidin-Alexa Fluor 647; with or without pre-incubation with EM-163 (100 and 50 µg/ml) or DMSO.

B1: recombinant MyD88 TIR domain (amino acids 157-296) (domain or fragment, human, UniProt Q99836 157-296, looked up)
chain: MPERFDAFICYCPSDIQFVQEMIRQLEQTNYRLKLCVSDRDVLPGTCVWSIASELIEKRCRRMVVVVSDDYLQSKECDFQTKFALSLSPGAHQKRLIPIKYKAMKKEFPSILRFITVCDYTNPCTKSWFWTRLAKALSLP
modifications: biotin (EZ Link Biotin BMCC kit) on the copy in solution; the copy spotted on the slide is not biotinylated
notes: also called MyD88 (157-296); TIR domain protein (monomer); not shown: His, N-terminal, cleaved; MBP, N-terminal, cleaved
On to B1, for which the binding result is given as “binds”.
